{"source": "patent US10300024B2", "about": "“Proteinoid compounds, process of preparing same and uses thereof” (Bar-Ilan University, priority 2015, dated 2019)", "molecules": {"B1": {"name": "PEG-TRAIL NPs: hollow NPs (without Dox) conjugated to TRAIL via PEG (conjugate, UniProt P50591 1-281, looked up)", "Tumor necrosis factor ligand …": "MAMMEVQGGPSLGQTCVLIVIFTVLLQSLCVAVTYVYFTNELKQMQDKYSKSGIACFLKEDDSYWDPNDEESMNSPCWQVKWQLRQLVRKMILRTSEETISTVQEKQQNISPLVRERGPQRVAAHITGTRGRSNTLSSPNSKNEKALGRKINSWESSRSGHSFLSNLHLRNGELVIHEKGFYYIYSQTYFRFQEEIKENTKNDKQMVQYIYKYTSYPDPILLMKSARNSCWSKDAEYGLYSIYQGGIFELKENDRIFVSVTNEHLIDMDHEASFFGAFLVG", "modifications": "PEG-linked to hollow nanoparticles"}, "B2": {"name": "free TRAIL: TNF-related apoptosis-inducing ligand (protein, UniProt P50591 1-281, looked up)", "Tumor necrosis factor ligand …": "B1 Tumor necrosis factor ligand …"}}, "key": {"[1]": {"experiment": "Photostability under xenon lamp illumination", "type": "physicochemical", "settings": "continuous illumination, 20 min", "description": "An aqueous solution of ICG ([…]) in PBS was prepared, and the fluorescence intensity with λex set at 780 nm and λem set at 800 nm was measured. A dispersion of NIR fluorescent P(EF-PLLA) nanoparticles in PBS was prepared, and diluted to give a similar fluorescence intensity to the dye at the same wavelengths. The excitation and emission slits were opened to 20 nm and 5 nm, respectively. Each of the samples was illuminated continuously with a xenon lamp, and the fluorescence intensity was measured over a period of 20 min by a Cary Eclipse fluorescence spectrophotometer (Agilent Technologies Inc.). Intensity values were normalized for comparison."}, "[2]": {"settings": "cited from earlier work"}, "[3]": {"system": "HCT116 human colon cancer cells", "experiment": "XTT cell viability, HCT116", "type": "cell-based", "description": "HCT116 human colon cancer cells were treated with 0.01 mg/mL NPs, hollow or containing 1.66 μg Dox, non-conjugated and conjugated to 35 ng TRAIL. Free Dox, free TRAIL and PBS served as control groups. Absorption was measured for all samples, each in six, with TECAN spectrophotometer to determine the cell viability. […] It was chosen to continue with the TRAIL-PEG-Dox NPs, as PEGylation modifies the physical and chemical properties of the drug, and can decrease immunogenicity and improve drug solubility."}}}
{"molecule": "CC1(C)C(/C=C/C=C/C=C/C=C2\\N(CCCCS(=O)(=O)O)c3ccc4ccccc4c3C2(C)C)=[N+](CCCCS(=O)(=O)[O-])c2ccc3ccccc3c21", "note": "[free ICG, indocyanine green]", "values": [{"measurement": "fluorescence intensity during illumination", "setting": "[1]", "result": "decreased significantly"}]}
{"molecule": "N[C@@H](Cc1c[nH]cn1)C(=O)O", "note": "[histidine]", "values": [{"measurement": "pKa of α-amine group", "setting": "[2]", "result": 9.33}]}
{"molecule": "B1", "values": [{"measurement": "toxic effect", "setting": "[3]; 0.01 mg/mL NPs, 24 h and 72 h", "result": "did not have a toxic effect"}]}
{"molecule": "B2", "values": [{"measurement": "cell viability course", "setting": "[3]; after 72 h", "result": "recovery in the cell viability"}, {"measurement": "toxicity", "setting": "[3]; over 24 h", "result": "good toxicity"}]}
